The text below walks through data of article PMC13379236 (Cell reports, 2026).

Entries after “also recorded” stand apart in the source; their conditions may differ.

This test concerns ZYG11B. It is filed as cell-based, human.

B1: NLRP1 Gly/N-degron: C-terminal fragment generated by 3C cleavage, which exposes the Gly/N-degron, begins at glycine-131 (protein)
chain: GSERRVLRQLPDTSGRRWREISASLLYQALPSSPDHESPSQESPNAPTSTAVLGSWGSPPQPSLAPREQEAPGTQWPLDETSGIYYTEIREREREKSEKGRPPWAAVVGTPPQAHTSLQPHHHPWEPSVRESLCSTWPWKNEDFNQKFTQLLLLQRPHPRSQDPLVKRSWPDYVEENRGHLIEIRDLFGPGLDTQEPRIVILQGAAGIGKSTLARQVKEAWGRGQLYGDRFQHVFYFSCRELAQSKVVSLAELIGKDGTATPAPIRQILSRPERLLFILDGVDEPGWVLQEPSSELCLHWSQPQPADALLGSLLGKTILPEASFLITARTTALQNLIPSLEQARWVEVLGFSESSRKEYFYRYFTDERQAIRAFRLVKSNKELWALCLVPWVSWLACTCLMQQMKRKEKLTLTSKTTTTLCLHYLAQALQAQPLGPQLRDLCSLAAEGIWQKKTLFSPDDLRKHGLDGAIISTFLKMGILQEHPIPLSYSFIHLCFQEFFAAMSYVLEDEKGRGKHSNCIIDLEKTLEAYGIHGLFGASTTRFLLGLLSDEGEREMENIFHCRLSQGRNLMQWVPSLQLLLQPHSLESLHCLYETRNKTFLTQVMAHFEEMGMCVETDMELLVCTFCIKFSRHVKKLQLIEGRQHRSTWSPTMVVLFRWVPVTDAYWQILFSVLKVTRNLKELDLSGNSLSHSAVKSLCKTLRRPRCLLETLRLAGCGLTAEDCKDLAFGLRANQTLTELDLSFNVLTDAGAKHLCQRLRQPSCKLQRLQLVSCGLTSDCCQDLASVLSASPSLKELDLQQNNLDDVGVRLLCEGLRHPACKLIRLGLDQTTLSDEMRQELRALEQEKPQLLIFSRRKPSVMTPTEGLDTGEMSNSTSSLKRQRLGSERAASHVAQANLKLLDVSKIFPIAEIAEESSPEVVPVELLCVPSPASQGDLHTKPLGTDDDFWGPTGPVATEVVDKEKNLYRVHFPVAGSYRWPNTGLCFVMREAVTVEIEFCVWDQFLGEINPQHSWMVAGPLLDIKAEPGAVEAVHLPHFVALQGGHVDTSLFQMAHFKEEGMLLEKPARVELHHIVLENPSFSPLGVLLKMIHNALRFIPVTSVVLLYHRVHPEEVTFHLYLIPSDCSIRKAIDDLEMKFQFVRIHKPPPLTPLYMGCRYTVSGSGSGMLEILPKELELCYRSPGEDQLFSEFYVGHLGSGIRLQVKDKKDETLVWEALVKPGDLMPATTLIPPARIAVPSPLDAPQLLHFVDQYREQLIARVTSVEVVLDKLHGQVLSQEQYERVLAENTRPSQMRKLFSLSQSWDRKCKDGLYQALKETHPHLIMELWEKGSKKGLLPLSS
Regarding B1, the “binding to ZYG11B Extended Surface I mutants” value is “decreases the binding”, the “binding to ZYG11B Gly-pocket mutants” value is “abolishes the binding” and the “binding to ZYG11B R466A (Extended Surface II)” value is reported as “relatively strong reduction”.

B2: E133K: E133K mutation of NLRP1 (residue E3 of the Gly/N-degron) (protein)
chain: GSKRRVLRQLPDTSGRRWREISASLLYQALPSSPDHESPSQESPNAPTSTAVLGSWGSPPQPSLAPREQEAPGTQWPLDETSGIYYTEIREREREKSEKGRPPWAAVVGTPPQAHTSLQPHHHPWEPSVRESLCSTWPWKNEDFNQKFTQLLLLQRPHPRSQDPLVKRSWPDYVEENRGHLIEIRDLFGPGLDTQEPRIVILQGAAGIGKSTLARQVKEAWGRGQLYGDRFQHVFYFSCRELAQSKVVSLAELIGKDGTATPAPIRQILSRPERLLFILDGVDEPGWVLQEPSSELCLHWSQPQPADALLGSLLGKTILPEASFLITARTTALQNLIPSLEQARWVEVLGFSESSRKEYFYRYFTDERQAIRAFRLVKSNKELWALCLVPWVSWLACTCLMQQMKRKEKLTLTSKTTTTLCLHYLAQALQAQPLGPQLRDLCSLAAEGIWQKKTLFSPDDLRKHGLDGAIISTFLKMGILQEHPIPLSYSFIHLCFQEFFAAMSYVLEDEKGRGKHSNCIIDLEKTLEAYGIHGLFGASTTRFLLGLLSDEGEREMENIFHCRLSQGRNLMQWVPSLQLLLQPHSLESLHCLYETRNKTFLTQVMAHFEEMGMCVETDMELLVCTFCIKFSRHVKKLQLIEGRQHRSTWSPTMVVLFRWVPVTDAYWQILFSVLKVTRNLKELDLSGNSLSHSAVKSLCKTLRRPRCLLETLRLAGCGLTAEDCKDLAFGLRANQTLTELDLSFNVLTDAGAKHLCQRLRQPSCKLQRLQLVSCGLTSDCCQDLASVLSASPSLKELDLQQNNLDDVGVRLLCEGLRHPACKLIRLGLDQTTLSDEMRQELRALEQEKPQLLIFSRRKPSVMTPTEGLDTGEMSNSTSSLKRQRLGSERAASHVAQANLKLLDVSKIFPIAEIAEESSPEVVPVELLCVPSPASQGDLHTKPLGTDDDFWGPTGPVATEVVDKEKNLYRVHFPVAGSYRWPNTGLCFVMREAVTVEIEFCVWDQFLGEINPQHSWMVAGPLLDIKAEPGAVEAVHLPHFVALQGGHVDTSLFQMAHFKEEGMLLEKPARVELHHIVLENPSFSPLGVLLKMIHNALRFIPVTSVVLLYHRVHPEEVTFHLYLIPSDCSIRKAIDDLEMKFQFVRIHKPPPLTPLYMGCRYTVSGSGSGMLEILPKELELCYRSPGEDQLFSEFYVGHLGSGIRLQVKDKKDETLVWEALVKPGDLMPATTLIPPARIAVPSPLDAPQLLHFVDQYREQLIARVTSVEVVLDKLHGQVLSQEQYERVLAENTRPSQMRKLFSLSQSWDRKCKDGLYQALKETHPHLIMELWEKGSKKGLLPLSS
On to B2, for which the “interaction of NLRP1 mutants with ZYG11B” value is “decreases the interaction; also recorded: reduced binding to ZYG11B”.
